According to US20190071480A1 (Biogen, published 2019):
Values belong to the binder of their own block, whether it stands above or below them. Bridges are numbered along the chain shown (N, C = ends).

Key:
[1] = target: T1, extracellular domain of activin receptor type IIB (ActRIIBecd), biotinylated (Homo sapiens (Human), UniProt Q13705 27-117, amino-biotinylated with amine-PEG3-Biotin); assay: Mean KD column of Table 5; method not restated (BIAcore as Example 5); species also listed in Table 4
T1 construct: immobilised on a streptavidin-coated sensor chip; also called biotinylated ActRIIBecd; extracellular domain of ActRIIB
T1 sequence: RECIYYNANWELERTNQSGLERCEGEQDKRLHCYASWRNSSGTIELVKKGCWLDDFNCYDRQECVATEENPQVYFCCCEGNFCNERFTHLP
Procedure: (§1) Biosensor experiments. In one embodiment, experiments were performed on a BIAcore™ T100/T200 instrument (Pharmacia Biosensor AB) in the multichannel mode (serial flow path involving flow cells 1+2+3+4). Flow rate was 10 μl/min; temperature was 25° C.; and data were recorded at 2.5 points/s. All four segments of a sensor chip CMS were coated with streptavidin (Sigma) to a density of 2000 pg/mm² (2000 resonance units) by the aminocoupling procedure. ActRIIBecd (10 mg) and amine-PEG3-Biotin (10 mg, Pierce, Rockford, Ill.) were dissolved in 200 μl H₂O and 10 mg NaCNBH₃ was added to prepare biotinylated ActRIIBecd. The reaction mixture was heated at 70° C. for 24 h, after that a further 10 mg NaCNBH₃ was added and the reaction was heated at 70° C. for another 24 h. After cooling to room temperature, the mixture was desalted with the spin column (3,000 molecular weight cut off (MWCO)). Biotinylated ActRIIBecd was collected, freeze-dried and used for streptavidin (SA) chip preparation. Amino-biotinylated ActRIIBecd was then immobilized independently on flow cells 2-4 for 10 minutes at a flow rate of 5 μL/min and a concentration of 20 μM in 10 mM sodium acetate, pH 4.0, at a density of 50-250 resonance units (RU). The stored polypeptides were dissolved in glycine buffer (2.5 g of glycine, 0.5 g of sucrose, 370 mg of L-glutamate, 10 mg of sodium chloride, and 10 mg of Tween 80 in 100 mL water, pH 4.5) to prepare 10 mg/mL solution and then diluted with previous glycine buffer to prepare analytes with various concentration. Sensograms were recorded during flow of the analyte (the ActRIIBecd-associated polypeptides (i.e., domains) as previously described) first through flow cell 1 (control) then through flow cell 2 (biotinylated ActRIIBecd). The sensogram obtained for flow cell 1 was subtracted from the sensogram obtained for flow cell 2. The sensograms obtained at 1.11, 3.33, 10, 30, and 90 nM analyte were evaluated for equilibrium binding, association rate, and dissociation rate by using the programs supplied with the instrument (BIA evaluation 2.1; Software Handbook. 1995; Pharmacia Biosensor AB).

[2] = target: T1, extracellular domain of activin …; assay: BIAcore SPR as Example 5 (method not restated); SD ±1.62 nM
[3] = target: T1, extracellular domain of activin …; assay: BIAcore SPR as Example 5 (method not restated); SD ±1.79 nM
Procedure: as §1, with “Biotinylated ActRIIBecd was collected, freeze-dried and used for streptavidin (SA) chip preparation. Amino-biotinylated ActRIIBecd was then immobilized independently on flow cells 2-4 for 10 minutes at a flow rate of 5 μL/min and a concentration of 20 μM in 10 mM sodium acetate, pH 4.0, at a density of 50-250 resonance units (RU). The stored polypeptides were dissolved in glycine buffer (2.5 g of glycine, 0.5 g of sucrose, 370 mg of L-glutamate, 10 mg of sodium chloride, and 10 mg of Tween 80 in 100 mL water, pH 4.5) to prepare 10 mg/mL solution and then diluted with previous glycine buffer to prepare analytes with various concentration.” left out, “The sensogram obtained for flow cell 1 was subtracted from the sensogram obtained for flow cell 2.” left out

[4] = target: T1, extracellular domain of activin …; assay: BIAcore SPR as Example 5 (method not restated); SD ±2.62 nM
Procedure: as §1, with “Biotinylated ActRIIBecd was collected, freeze-dried and used for streptavidin (SA) chip preparation. Amino-biotinylated ActRIIBecd was then immobilized independently on flow cells 2-4 for 10 minutes at a flow rate of 5 μL/min and a concentration of 20 μM in 10 mM sodium acetate, pH 4.0, at a density of 50-250 resonance units (RU). The stored polypeptides were dissolved in glycine buffer (2.5 g of glycine, 0.5 g of sucrose, 370 mg of L-glutamate, 10 mg of sodium chloride, and 10 mg of Tween 80 in 100 mL water, pH 4.5) to prepare 10 mg/mL solution and then diluted with previous glycine buffer to prepare analytes with various concentration.” left out, “The sensogram obtained for flow cell 1 was subtracted from the sensogram obtained for flow cell 2.” left out

[5] = target: T1, extracellular domain of activin …; assay: BIAcore SPR, biotinylated ActRIIBecd on chip; SD ±13.51 nM
Procedure: as §1, with “Biotinylated ActRIIBecd was collected, freeze-dried and used for streptavidin (SA) chip preparation. Amino-biotinylated ActRIIBecd was then immobilized independently on flow cells 2-4 for 10 minutes at a flow rate of 5 μL/min and a concentration of 20 μM in 10 mM sodium acetate, pH 4.0, at a density of 50-250 resonance units (RU). The stored polypeptides were dissolved in glycine buffer (2.5 g of glycine, 0.5 g of sucrose, 370 mg of L-glutamate, 10 mg of sodium chloride, and 10 mg of Tween 80 in 100 mL water, pH 4.5) to prepare 10 mg/mL solution and then diluted with previous glycine buffer to prepare analytes with various concentration.” left out, “The sensogram obtained for flow cell 1 was subtracted from the sensogram obtained for flow cell 2.” left out

[6] = target: T1, extracellular domain of activin …; assay: BIAcore SPR, biotinylated ActRIIBecd on chip; SD ±12.12 nM
Procedure: as §1, with “Biotinylated ActRIIBecd was collected, freeze-dried and used for streptavidin (SA) chip preparation. Amino-biotinylated ActRIIBecd was then immobilized independently on flow cells 2-4 for 10 minutes at a flow rate of 5 μL/min and a concentration of 20 μM in 10 mM sodium acetate, pH 4.0, at a density of 50-250 resonance units (RU). The stored polypeptides were dissolved in glycine buffer (2.5 g of glycine, 0.5 g of sucrose, 370 mg of L-glutamate, 10 mg of sodium chloride, and 10 mg of Tween 80 in 100 mL water, pH 4.5) to prepare 10 mg/mL solution and then diluted with previous glycine buffer to prepare analytes with various concentration.” left out, “The sensogram obtained for flow cell 1 was subtracted from the sensogram obtained for flow cell 2.” left out

[7] = target: T1, extracellular domain of activin …; assay: BIAcore SPR, biotinylated ActRIIBecd on chip; SD ±23.17 nM
Procedure: as §1, with “Biotinylated ActRIIBecd was collected, freeze-dried and used for streptavidin (SA) chip preparation. Amino-biotinylated ActRIIBecd was then immobilized independently on flow cells 2-4 for 10 minutes at a flow rate of 5 μL/min and a concentration of 20 μM in 10 mM sodium acetate, pH 4.0, at a density of 50-250 resonance units (RU). The stored polypeptides were dissolved in glycine buffer (2.5 g of glycine, 0.5 g of sucrose, 370 mg of L-glutamate, 10 mg of sodium chloride, and 10 mg of Tween 80 in 100 mL water, pH 4.5) to prepare 10 mg/mL solution and then diluted with previous glycine buffer to prepare analytes with various concentration.” left out, “The sensogram obtained for flow cell 1 was subtracted from the sensogram obtained for flow cell 2.” left out

[8] = target: T1, extracellular domain of activin …; assay: BIAcore SPR, biotinylated ActRIIBecd on chip; SD ±16.41 nM
Procedure: as §1, with “Biotinylated ActRIIBecd was collected, freeze-dried and used for streptavidin (SA) chip preparation. Amino-biotinylated ActRIIBecd was then immobilized independently on flow cells 2-4 for 10 minutes at a flow rate of 5 μL/min and a concentration of 20 μM in 10 mM sodium acetate, pH 4.0, at a density of 50-250 resonance units (RU). The stored polypeptides were dissolved in glycine buffer (2.5 g of glycine, 0.5 g of sucrose, 370 mg of L-glutamate, 10 mg of sodium chloride, and 10 mg of Tween 80 in 100 mL water, pH 4.5) to prepare 10 mg/mL solution and then diluted with previous glycine buffer to prepare analytes with various concentration.” left out, “The sensogram obtained for flow cell 1 was subtracted from the sensogram obtained for flow cell 2.” left out

[9] = target: T1, extracellular domain of activin …; assay: BIAcore SPR as Example 5 (method not restated); SD ±2.21 nM
Procedure: as §1, with “Biotinylated ActRIIBecd was collected, freeze-dried and used for streptavidin (SA) chip preparation. Amino-biotinylated ActRIIBecd was then immobilized independently on flow cells 2-4 for 10 minutes at a flow rate of 5 μL/min and a concentration of 20 μM in 10 mM sodium acetate, pH 4.0, at a density of 50-250 resonance units (RU). The stored polypeptides were dissolved in glycine buffer (2.5 g of glycine, 0.5 g of sucrose, 370 mg of L-glutamate, 10 mg of sodium chloride, and 10 mg of Tween 80 in 100 mL water, pH 4.5) to prepare 10 mg/mL solution and then diluted with previous glycine buffer to prepare analytes with various concentration.” left out, “The sensogram obtained for flow cell 1 was subtracted from the sensogram obtained for flow cell 2.” left out

[10] = target: T1, extracellular domain of activin …; assay: BIAcore SPR as Example 5 (method not restated); SD ±1.56 nM
Procedure: as §1, with “Biotinylated ActRIIBecd was collected, freeze-dried and used for streptavidin (SA) chip preparation. Amino-biotinylated ActRIIBecd was then immobilized independently on flow cells 2-4 for 10 minutes at a flow rate of 5 μL/min and a concentration of 20 μM in 10 mM sodium acetate, pH 4.0, at a density of 50-250 resonance units (RU). The stored polypeptides were dissolved in glycine buffer (2.5 g of glycine, 0.5 g of sucrose, 370 mg of L-glutamate, 10 mg of sodium chloride, and 10 mg of Tween 80 in 100 mL water, pH 4.5) to prepare 10 mg/mL solution and then diluted with previous glycine buffer to prepare analytes with various concentration.” left out, “The sensogram obtained for flow cell 1 was subtracted from the sensogram obtained for flow cell 2.” left out

Kd [1]: 16.2 nM | Kd [2]: 16.2 nM
B1: SEQ ID NO: 218, cysteine pairs C15-C15^b, C29-C62^a, C30-C64^a (designed binder)
chain: AQAKHKQRKRLKSSCKRHPLYNSKIPKACCVPTELSAISMLYLDENEKVVLKNYQDMVVEGCGCR
modifications: disulfide 29-62, 30-64; also: homodimer via intermolecular C15-C15 disulfide
notes: homodimer by intermolecular disulfide

Kd [3]: 18.4 nM | Kd [1]: 18.4 nM
B2: SEQ ID NO: 218, cysteine pairs C15-C15^b, C29-C64^a, C30-C62^a (designed binder)
chain: AQAKHKQRKRLKSSCKRHPLYNSKIPKACCVPTELSAISMLYLDENEKVVLKNYQDMVVEGCGCR
modifications: disulfide 29-64, 30-62; also: homodimer via intermolecular C15-C15 disulfide
notes: as for B1

Kd [1]: 40.9 nM | Kd [4]: 40.9 nM
B3: SEQ ID NO: 218, cysteine pairs C15-C30^a (designed binder)
chain: AQAKHKQRKRLKSSCKRHPLYNSKIPKACCVPTELSAISMLYLDENEKVVLKNYQDMVVEGCGCR
modifications: disulfide 15-30

Kd [5]: 14.2 nM
B4: Recombinant polypeptide of clones 21 + 15 + 10 (designed binder)
chain: NSKIPKACCVPTELSAISMLYLDENEKVVLKNYQDMVVEGCGCRVDFSDVGWNDWIVAPPGYHAFYCHGECPFPLADHLNSTNHAIVQTLVNSVAQAKHKQRKRLKSSCKRHPLY

Kd [6]: 36.4 nM
Binder: AQAKHKQRKRLKSSCKRHPLY [Clone No. 10 domain (ActRIIBecd-associated polypeptide)]

Kd [7]: 63.7 nM
Binder: AQAKHKGRKRLKSSCKRHPLY [Clone No. 11 domain (ActRIIBecd-associated polypeptide)]

Kd [8]: 66.4 nM
B5: Recombinant polypeptide of clones 18 + 17 (designed binder)
chain: VDFSDVGWNDHAVAPPGYHAFYCHGECPFPLADHLNSTNHAIVQTLVNSVVDFSDVGWNDWIVAPPGYHAFYCHGECPFPLADHLNSDNHAIVQTLVNSV

Kd [1]: 18.1 nM | Kd [9]: 18.1 nM
B6: SEQ ID NO: 212, cysteine pairs C59-C59^b, C8-C41^a, C9-C43^a (designed binder)
chain: NSKIPKACCVPTELSAISMLYLDENEKVVLKNYQDMVVEGCGCRAQAKHKQRKRLKSSCKRHPLY
modifications: disulfide 8-41, 9-43; also: homodimer via intermolecular C59-C59 disulfide
notes: as for B1

Kd [10]: 19.3 nM | Kd [1]: 19.3 nM
B7: SEQ ID NO: 212, cysteine pairs C59-C59^b, C8-C43^a, C9-C41^a (designed binder)
chain: NSKIPKACCVPTELSAISMLYLDENEKVVLKNYQDMVVEGCGCRAQAKHKQRKRLKSSCKRHPLY
modifications: disulfide 9-41, 8-43; also: homodimer via intermolecular C59-C59 disulfide
notes: as for B1
